For the assay, the target named is T1, huIL-18Rβ-HisAvi (human, UniProt O95256 20-356, biotinylated in the Octet blocking assay).
T1 construct: Soluble analyte in all SPR runs; captured on streptavidin sensors in the Octet assay; also called human IL-18Rβ; human IL-18Rβ-Avi-His
T1 sequence: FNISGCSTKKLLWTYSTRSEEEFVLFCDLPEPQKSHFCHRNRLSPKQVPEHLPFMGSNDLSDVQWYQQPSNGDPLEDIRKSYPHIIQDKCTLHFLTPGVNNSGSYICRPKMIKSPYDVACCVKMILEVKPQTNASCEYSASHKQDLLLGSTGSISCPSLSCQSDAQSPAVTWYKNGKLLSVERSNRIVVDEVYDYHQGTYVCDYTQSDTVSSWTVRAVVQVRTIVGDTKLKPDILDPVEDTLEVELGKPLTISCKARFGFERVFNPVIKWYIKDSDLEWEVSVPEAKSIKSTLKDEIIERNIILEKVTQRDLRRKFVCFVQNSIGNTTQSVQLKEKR
The assay can be described thus: SPR T200, mAb on anti-hFc, 37C, pH 7; control.

B1: P20 (antibody, human IgG1, kappa)
heavy: QVQLQQSGPGLVKPSETLSLTCTVSGGSINNYYWSWIRQPPGKGLEWIGYIFYSGTTNYNPSLKSRVTISVDTSKNQFSLKLSSVTAADTAVYYCARDVGIAARNSYYYVMDVWGQGTTVTVSSASTKGPSVFPLAPSSKSTSGGTAALGCLVKDYFPEPVTVSWNSGALTSGVHTFPAVLQSSGLYSLSSVVTVPSSSLGTQTYICNVNHKPSNTKVDKRVEPKSCDKTHTCPPCPAPEAEGAPSVFLFPPKPKDTLMISRTPEVTCVVVDVSHEDPEVKFNWYVDGVEVHNAKTKPREEQYNSTYRVVSVLTVLHQDWLNGKEYKCKVSNKALPAPIEKTISKAKGQPREPQVYTLPPSREEMTKNQVSLTCLVKGFYPSDIAVEWESNGQPENNYKTTPPVLDSDGSFFLYSKLTVDKSRWQQGNVFSCSVMHEALHNHYTQKSLSLSPG
light: AIQLTQSPSSLSASVGDRVTITCRASQGISSALAWYQQKPGKAPKFLIYDASSLESGVPSRFSGSGSGTDFTLTISSLQPEDFATYYCQQFNSYPITFGQGTRLEIKRTVAAPSVFIFPPSDEQLKSGTASVVCLLNNFYPREAKVQWKVDNALQSGNSQESVTEQDSKDSTYSLSSTLTLSKADYEKHKVYACEVTHQGLSSPVTKSFNRGEC
notes: Human IgG
For the molecule B1, the “apparent Kd (pooled screen)” value was found to be 0.18 nM, the “apparent koff (pooled screen)” value was determined as 5.2e-05 s⁻¹ and the “apparent kon (pooled screen)” value worked out at 280000 M⁻¹ s⁻¹.

The values are drawn from patent publication US20250230251A1 (Bristol-Myers Squibb, published 2025).
